Test: yeast display, Sf9 membrane polyspecificity reagent, FACS + sequencing; frameworks hold sequencing errors
In short: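 Galactose-induced (36–48 hours) yeast carrying a synthetic nanobody display library were exposed to 10% biotinylated, detergent-solubilized Sf9 membrane reagent at 4 °C for 1 hour. FACS followed streptavidin microbead enrichment, using low and high (top ~1%) gates for expression (anti-HA) and reagent binding (streptavidin). Colony PCR, MiSeq 2 × 250 sequencing and CDR-length filtering followed. Labels for polyreactivity reflect the gate of origin.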

| Sequence | polyreactivity (PSR sort gate) |
| --- | --- |
| QVQLVESGGGLVQAGGSLRLICAASGSTFLSNAMGWYRQATGKERELVAAITTSGTSTFYSDSVKGRFTISRDNAKNTVYLQMNSMKPEDTAVYYCAADSAHRYIPVQGYDYWGQGTQVTVSS | low polyreactivity |
| QVQLVESGGGLVQAGGSLRLSCAASGSIFYSNVMGWYRQAPGKERELVAAISKNGGSTYYADSVKGRFTISRDNAKNTVYLQMNSLKPEDTAVYYCAKYGYVGTTYGYWGQGTQVTVSS | high polyreactivity |
| QVHLQDSGGGLVKAGGSLRMSCAASGYIFGSGSMGWFRQAPGKERELVATINNGSSTYYADSVKGRFTISRDNAKNNVYLQMNSLKAEATAVYYCAVYLYRLTFFYYWGQGNQVTVSS | high polyreactivity |
| QVQLVESGGGLVQAGGSLRLSCAASGSTFWFYAMGWYRQSPGKERELVAVISNSGSTYYADSVKGRFTISRDNAKNTVYLQMNSLKPEDTAVYYCNKDGGGDSYWYDYWGQGTQVTVSS | low polyreactivity |
| QVQLVESGGGLVQAGVSLRLSCAASGRIFLWYAMGWYRQAPGKERELVAVIRGRGDSTSYADSVKGRFTISRDNAKNTVYLQMNSLKPEDTAVYYCADVGRYDYNDWGQGTQVTVSS | low polyreactivity |
| QVQLVESGGGLVRAGGSLRLSCAASGSTFGENAMGWYRQAPGKERELVAAISDSGGDTYYADSVKGRFTISRDNAKNTVYLQMNSLKPEDTAVYYCAADRYGYWYAYYSWGQGTQVTVSS | low polyreactivity |
| QVQLVESGGGLVQAGGSLRLSCAASGSTFDYYDMGWYRQAPGKERELVATITSGGSTNYADSVKGRFTISRDNAKNTVYLQMNSLKPEDTAVYYCAADIGGDGEGYDYWGQGTQVTVSS | low polyreactivity |
| QVHLVESGGGLVQAGGSLRLSCAASGFTFYKYVMGWYRQAPGKERELVAAITTSGGSTYYADSVKGRFTISRDNAKNTVYLQMNSLKPEDTAVYYCNARSLHTSEGDYWGQGTQVTVSS | low polyreactivity |
| QVQLVESGGGLVQAGGSLRLSCAASGSTFPVNAKGWYRPAPGKERQLVATIRWTGGGTYYADSVKGRFTISRDNAKNTVYLQMNSLKPEDTAVYYCAADPPWEWSDYGYDYWGQGTQVTVSS | low polyreactivity |
| QDQLVESGGGLVQAGGSLRLSCAASGLTFEVYAMGWYRQAPGKERELVAAISSGGGSKYYADSVKGRFTISRDNAKNTVYLQMISLKPEDTAVYYCNAVAKLYYWRYDYLGQGTQVTVSS | low polyreactivity |
| QVQLVESGGGLVQAGGSLRLSCAASGRTFSKNAMGWYRQAPGKERELVAAISWSGGRTYYADSVKGRFTISRDNAKNTVYLQMNSLKPEDTAVYYCNAYYPGNGPRSTSTRYEYWGQGTQVTVSS | high polyreactivity |
| QVQLVESGGGLVQAGGSLRLSCAASGSIFYANAMGWYRQAPGKERELVAAISRSGGRTYYADSVKGRFTISRDNSKNTVYLQMNSLKPEDTAVYYCAADTGRYRDSNYWGQGTQVTVSS | high polyreactivity |
| QVQLVESGGGLVQAGGSLRLSCAASGRTFASYAMGWYRKAPGKETELVATISSGDSTYADSVKGRFTISRDNAKITVYLQRNRLKPEDTAVYYCAAASDLPGTCGYDYWGQGTQVTVSS | low polyreactivity |
| QDPLVESGGGVVQAGGSLRLSCAASGSTFSDYAMGWYRQAPGKERELVAAISVSDGSTYYADSVKGRFTISRDIAKNSVYLQMNSLKPEETAVYYCAAEYPYFVYSYFRFDYWGQGTQVTVSS | low polyreactivity |
| QDHLVETGGGLVQAGGSLRLSCAASGRTLYINAMGWYRQAPGKERELVAAIRRGGSTYADSVKGRFTISRDNAKNTVYLQMNRLKPEDTAVYYCAADVPSGKYKGDYWGQGTQVTVSS | high polyreactivity |
| QVQLVESGGGLVQAGGSLRLSCAASGSTFPANAMGWYRQAPGKERELVAAISSVGSTNYADSVRGRFTLSRDNAKNTVYLQMNSLKPEDTAVYYCATQPTWYTVGDLDYWGQGTQVTVSS | low polyreactivity |
| QVQLVESGGGLVQAGGSLRLSCAASGRTFAYYAMGWYRQAPGKERELVAAISSSGGITYYADSVKGRFTISRDNAKNTVYLQMNSLKPEDTAVYYCATPRARTRLRYYWGQGTQVTVSS | high polyreactivity |
| QVQLVESGGGLVQAGGSLRLSCAASGNTFYRNAMGWYRQAPGKERELVAGISNGGSTNYADSVKGRFTISRDNAKNTVYLQMNSLKPEDTAVYYCAKDEPKVSRAFDYWGQGTQVTVSS | low polyreactivity |
| QVQLVESGGGLVQAGGSLRLSCAASGSTFTDNGMVWYRQAPGKARELVAGISYSGGSTYYADSVKGRFRISRDNAKNTVYLQMNSLKPEDTAVYYCAADRGGYYLSEYDYWGQVTQVTVSS | low polyreactivity |
| QVQLVESGGGLVQAGGSLRLSCAASGRIFYSYAMGWYRQAPGKERELVATISSAGSTYYADSVKGRFTISRDNAKNTVYLQMNSLKPEDTAVYYCAARRPRRYGFWGQGTQVTVSS | high polyreactivity |
| QVQLVESGVGLVQAGGSLRLICAASGRTFAYYAMGWYRQAPGKERELVAAISSGGRTNYADSVKGRFTISRDNAKNTVYLQMNSLKPEDTAVYYCARKASYQIYNGQYGGFGYGYWGQGTQVTVSS | high polyreactivity |
| QVQLVESGGGLVQAGGSLRLSCAASGSIFLVNAMGWYRQAPGERKELVAAISWSSGSTYYADSVKGRFTISRDNAKNTVYLQMNSLKPEDTAVYYCAKRSSITYRYDYWGQGTQVTVSS | high polyreactivity |

| Sequence | polyreactivity (PSR sort gate) |
| --- | --- |
| QVQLVESGGGLVQAGGSLRLSCAASGRIFSYNARGWYRQAPGKEWELVAAISSGGSTYYADSVKGRFTISRDNAKKTVYLQMNSLKPEDTAVYYCAADRRYYSDLYYWGQGTQVTVSS | low polyreactivity |
| QVQLVESGGGLVQAGGSHRLSCAASGSILDTYAMGWYRQAPGKERELVAAISRGGRTYYADSVKGRFTLSRDNAKNTVYLQMNSLKPEDTAVYYCNTLTRLVYDGMGYWGQGTQVTVSS | high polyreactivity |
| QVQLVESGGGLVQAGGSRRLSCAACGFIFEKNAMGWYRQAPGKERELVAAISGGGITNYADSVKGRFTISRDNEKKTVYLHMNSLKPQDTAVYYCAKTRRRLLTRYDYWGQGTQVTVSS | low polyreactivity |
| QVHLVESGGGLVQAGGSLRLSCAASGRIFSGYAMGWYRQAPGKERELVAAITSGASTNYADSVNGRFTISRDNPKITVYLQLNSLKPVVTAFYYCAATFHSWRGQYLWYDYWGQGTQVTVSS | low polyreactivity |
| QVQLVESGGGIVQAGGSLRLSCAASGFIFRYYAMGWYRHAPGKESELVATITRSGGSTYYADSVKGRFTISRDNAKNTVYLQMNSLKPEDTAVYYCAADIYWYRGYGYWGQGTQVTVSS | high polyreactivity |
| QVQLVESGGGLVQAGGSLRLSCAASGSTLRYYAMGSYRQAPGKERELVAAISTGGSTYYADSVKGRFTISRDNAKNTVYLQMNSLKPEDTAVYYSAADGYAHVWDYAYDYWGQGTQVTVSS | low polyreactivity |
| QVQLVESGGGLVQAGGSLRLSCAASGSNFTFYAMGWYRQAPGKERELVAAISKGGDRTYYADSVKGRFTISRDNAKNTVYLQMNSLKPEDTAVYYCARLVRPGRFGDGDYWGQGTQVTVSS | low polyreactivity |
| QDQHVESGGGLVQAGGSLRLSCDASGITFWYYAMGWYRQAPGKERELVAAISRRGGATYYADSVKGRFTISRDNAKNTVYLQLNSLKPEDTAVYYCNALLAGRRVARGYDSWGQGTQVTVSS | high polyreactivity |
| QVQLVESGGGLVQAGGSLRLSCAASGSTSGLYAMGWYRQAPGKERELVATISLSGGSTYYADSVKGRFTISRDNAKNTVYLQMNSLKPEDTAVYYCNTDKYKWNYGSTYRMDYWGQGTQVTVSS | low polyreactivity |
| QVQLVESGGGLVQAGGSLRLSCSASGRIFSTYAMGWYRQAPGKERELVAAINKIGGSTYYADSVKGRFTISRDNAKNTVYLQMNSLKPEDTAVYYCAADAPYYPVRRYYYWGQGTQVTVSS | low polyreactivity |
| QVQLVESGGGLVQAGGSLRLSCAASGSILLNNAMGWYRQAPGKERELVAAISLSGGGSTYYADSVKGRFTISRDNAKNTVYLQMNSLKPEDTAVYYCNADDPYLYYDSYDYWGQGTQVTVSS | low polyreactivity |
| QVQLVESGGGLVQAGGSLRLSCAASGRTFRTYAMGWYRQAPGKERELVAAITTSGSSTYYADSVNGRFTISRDNAKKTVYLQMNILKPEDTAVYYCAAARAAIVPGYYSWGQGSQVTVSS | low polyreactivity |
| QVQLVESGGGLVQAGGSLRLSCAASGRTFPTYAMGWYRQAPGKERELVARITWNGGSTYYADSVKGRFTISRDNAKNTVYLQMNSLKPEDTAVYYCNAAQRIRYYPRYYYGYDYWGQGTQVTVSS | high polyreactivity |
| QVQLVESGGGLVQAGGSLRLSCAASGSTFYRYAMGWYRQAPGKERELVAAISSSGGRTYYADSVKGRFTISRDNAKKTVYLQMNSLKPEDTAVYYCAAKNAAYARYYYWGQGTQVTVSS | high polyreactivity |
| QVQLVESGGGLVQAGGSLRLSCAASGRTFAYYAMGWYRQAPGKERELVATISWTTGSTYYADSVKGRFTISRDNAKNTVYLQMNSLKPEDTAVYYCNKRYNNPYWYPGRYPYDYWGQGTQVTVSS | high polyreactivity |
| QVQLVESGGGLVQAGGSLRLSCDASGPIFAWNGMGWYRPAPGKERELVAVITSGGNTNYADSVKGRFTFSLDNAKNTVFIQMNSLKPEDTAVYDCATKGYAKRTRFWSHYDYWGQGTQVNVSS | high polyreactivity |
| QVQLVESGGGLVQAGGSLRLSCAASGSIFTRNAMGWYRQAPGKERELVAAISWRGGITNYADSVKGRFTISRDNAKNTVYLQMNSLKPEDTAVYYCNKIRTRGGYGYWGQGTQVTVSS | high polyreactivity |
| QVQLVESCGGLVQAGGSLRLSCADSGLTMYGYARGWYRHAPGNERELVATLTRRGGSTYYADSVKGRFTISRDNAKNTVYLQMNSLKPEDPAVYYCAATYQHQNPQGVFSGGYYYWGQGTQVTVAS | high polyreactivity |
| QVQLVESGGGLVQAGGSLRLSCAASGFTFSYYTMGWYRQAPGKERELVAAISSTGVSTYYADSVKGRFTISRDNAKNTVYLQMNSLKPEDTAVYYCAADYYGVYEYYYWGQGTQVTVSS | high polyreactivity |
| QVQLVESGGGLVQAGGSLRLSCAASGSTFFPYAMGWYRQAPGKVRELVAAIRWSGGRTYYADSVKGRFTISRDNAKNTVFLQMNSLNPEDTAVYYCAAYKYLDYDYGGQGTQVTVSS | high polyreactivity |
| QLQLVESCGGLVQAGGSLRLSCAASGSILLNNAMGWYRQAPGKERELVAAISLSGGGSTYYADSVKGRFTLSRDNAKNTVYLQMNSLIPEDTAVYYCNADDPYLYYDSYDYWGQGTQVTVSS | low polyreactivity |

Reference: the nanobody polyreactivity screen of Harvey et al. (2022)
